Data on 8 molecules can be found in patent US20200216522A1 (DENALI THERAPEUTICS, published 2020).

Residue numbers refer to the chain shown, from its start. Names and notes keep the numbering of the source. Where two headings read alike, the source gives them in different places.

Assay [1] concerns the target human Tau splice isoform 0N3R (Tau352) (human, UniProt P10636 1-758). Put plainly: Fab ELISA. On the procedure: (§1) Half-area ELISA plates (Costar™) were coated overnight at 4° C. with 25 μL per well of 0.5 μg/mL r-Tau or p-Tau. The plates were washed three times with PBST using a BioTek® plate washer. The plates were then blocked for one hour at room temperature with 100 μL per well of PBSA. After washing three times with PBST, the periplasmically-expressed Fabs were added ([…]) and the plates were incubated for one hour. The plates were subsequently washed three times with PBST, and 25 μL per well of PBSA containing a 1:5,000 dilution of HRP-conjugated rabbit anti-human kappa (obtained from Bethyl Laboratories) was added. The plates were incubated at room temperature for 30 minutes, then washed three times with PBST. The plates were developed by adding 25 μL per well of TMB substrate (obtained from Thermo Fisher) and quenched with 2N H₂SO₄. The signal was quantified on a BioTek® plate reader at A₄₅₀. Wells with signal greater than 5-fold over background for both r-Tau and p-Tau were considered positive and the clones were re-arrayed from the primary culture for confirmation of binding (by repeat of ELISA) and sequencing of the variable regions.
(§2) ELISAs were performed essentially as described above, but coating was performed using 1 μg/mL of each recombinant Tau species and using a 1:1 dilution (in PBS with 0.1% BSA, 0.05% Tween®) of Fab containing supernatant. The results of the ELISAs, showing Fab binding to cyno Tau and mouse Tau, as well as binding to phosphorylated full-length human Tau and the human Tau isoforms, are shown in Table 1 below.
On the technique in general: ELISA stands for enzyme-linked immunosorbent assay.

Assay [2] concerns the target T1, cynomolgus monkey Tau (cynomolgus monkey, UniProt P57786 2-459 (rhesus entry)).
T1 construct: also called cyno Tau; cyno-Tau
In words: Fab ELISA. On the procedure: as §1, §2

Assay [3] has as its target T2, C-terminal truncated human Tau (Tau(1-421)) (human, UniProt P10636 1-738).
T2 construct: also called 1-421 (2N4R)
Put plainly: Fab ELISA. On the procedure:
as §1, §2

Assay [4] addresses human Tau splice isoform 1N4R (Tau412) (human, UniProt P10636 1-758). In words: Fab ELISA. On the procedure: as §1, §2
Assay [5] concerns the target T3, full-length human Tau (Tau441; 2N4R), recombinant (human, UniProt P10636 1-758).
T3 construct: made in E. coli, His6-Smt3 tag removed; biotinylated through amines for Octet and phage work; also called r-Tau; recombinant Tau
Put plainly: Fab ELISA. On the procedure:
as §1, §2

Assay [6] concerns the target T4, N-terminal truncated human Tau (Tau(50-441)) (human, UniProt P10636 50-758).
T4 construct: also called 50-441 (2N4R)
Put plainly: Fab ELISA. On the procedure: as §1, §2

In assay [7] the target is human Tau splice isoform 1N3R (Tau381) (human, UniProt P10636 1-758). In words: Fab ELISA. As for the experimental part:
as §1, §2

Assay [8] deals with T5, hyperphosphorylated recombinant human Tau441 (p-Tau) (human, UniProt P10636 1-758, phosphorylated in vitro with PKA and GSK3beta; sites not listed).
T5 construct: also called p-Tau (2N4R); phosphorylated r-Tau
T5 sequence (P10636 other isoform, or with tags, fused parts or gaps limits assumed): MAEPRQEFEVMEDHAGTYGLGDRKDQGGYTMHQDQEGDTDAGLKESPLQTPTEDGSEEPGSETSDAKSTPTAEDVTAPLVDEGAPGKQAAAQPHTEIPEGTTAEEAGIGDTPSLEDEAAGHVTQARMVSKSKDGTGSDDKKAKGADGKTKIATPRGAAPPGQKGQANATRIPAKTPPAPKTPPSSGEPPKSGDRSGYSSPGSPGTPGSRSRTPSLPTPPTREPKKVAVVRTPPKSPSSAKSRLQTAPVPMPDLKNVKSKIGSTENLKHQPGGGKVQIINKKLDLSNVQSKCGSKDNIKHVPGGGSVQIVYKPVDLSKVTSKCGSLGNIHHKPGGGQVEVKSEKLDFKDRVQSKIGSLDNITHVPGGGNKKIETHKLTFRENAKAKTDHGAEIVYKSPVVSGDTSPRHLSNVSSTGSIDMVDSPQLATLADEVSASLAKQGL
Put plainly: Fab ELISA. On the procedure:
as §1, §2

Assay [9] has as its target human Tau splice isoform 0N4R (Tau383) (human, UniProt P10636 1-758). Put plainly: Fab ELISA. As for the experimental part: as §1, §2
Assay [10] addresses human Tau splice isoform 2N3R (Tau410) (human, UniProt P10636 1-758). Put plainly: Fab ELISA. As for the experimental part:
as §1, §2

Assay [11] deals with mouse Tau (mouse, UniProt P10637 2-733). In words: Fab ELISA. On the procedure: as §1, §2
mouse Tau, sequence (P10637 other isoform, or with tags, fused parts or gaps limits assumed): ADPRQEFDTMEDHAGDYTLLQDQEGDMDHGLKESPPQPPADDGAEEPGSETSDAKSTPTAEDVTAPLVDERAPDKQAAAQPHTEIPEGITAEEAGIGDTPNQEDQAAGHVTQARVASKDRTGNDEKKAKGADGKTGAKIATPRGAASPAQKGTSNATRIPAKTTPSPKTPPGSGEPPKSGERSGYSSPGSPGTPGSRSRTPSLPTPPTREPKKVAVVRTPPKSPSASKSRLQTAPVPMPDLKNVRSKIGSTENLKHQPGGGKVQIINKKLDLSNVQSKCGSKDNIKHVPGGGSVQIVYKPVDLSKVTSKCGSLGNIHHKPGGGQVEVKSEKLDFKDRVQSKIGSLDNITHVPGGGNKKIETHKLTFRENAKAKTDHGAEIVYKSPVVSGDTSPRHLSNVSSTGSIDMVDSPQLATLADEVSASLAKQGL
Assay [12] has as its target T3, full-length human Tau (Tau441; 2N4R), …. In words: SPR Biacore. On the technique in general: In SPR one partner is held on a chip, and binding of the other changes the refractive index at the surface.
Assay [13] has the same target. In words: SPR Biacore. As for the experimental part:
IgG was purified with protein A affinity chromatography. The affinity of each hulC7 IgG variant for r-Tau was determined by surface plasmon resonance using a Biacore™ T200 instrument. Biacore™ Series S CM5 sensor chips were immobilized with monoclonal mouse anti-human IgG (Fc) antibody (Human antibody capture kit from GE Healthcare). Serial 3-fold dilutions of each hulC7 variant were injected at a flow rate of […]. Each sample was analyzed with 3-minute association and 10-minute dissociation. After each injection, the chip was regenerated using 3 M MgCl₂. Binding response was corrected by subtracting the RU from a flow cell capturing an irrelevant IgG at similar density. A 1:1 Languir model of simultaneous fitting of kₒₙ and koff was used for kinetics analysis.
This is another data set of the same source.

The target is the same in assay [14]. In words: SPR Biacore. This is another data set of the same source.
Assay [15] shares this target. Put plainly: SPR Biacore. The gist of the method: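 Each hulC7 IgG variant was captured via anti-human Fc on a CM5 chip, and 3-fold serial dilutions were injected at 30 µL/min with 3 min association and 10 min dissociation. Signal from a flow cell capturing irrelevant IgG was subtracted. kon and koff came from a simultaneous 1:1 Langmuir fit.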
The source holds these as a separate data set.

T4 sequence (P10636 other isoform, or with tags, fused parts or gaps limits assumed): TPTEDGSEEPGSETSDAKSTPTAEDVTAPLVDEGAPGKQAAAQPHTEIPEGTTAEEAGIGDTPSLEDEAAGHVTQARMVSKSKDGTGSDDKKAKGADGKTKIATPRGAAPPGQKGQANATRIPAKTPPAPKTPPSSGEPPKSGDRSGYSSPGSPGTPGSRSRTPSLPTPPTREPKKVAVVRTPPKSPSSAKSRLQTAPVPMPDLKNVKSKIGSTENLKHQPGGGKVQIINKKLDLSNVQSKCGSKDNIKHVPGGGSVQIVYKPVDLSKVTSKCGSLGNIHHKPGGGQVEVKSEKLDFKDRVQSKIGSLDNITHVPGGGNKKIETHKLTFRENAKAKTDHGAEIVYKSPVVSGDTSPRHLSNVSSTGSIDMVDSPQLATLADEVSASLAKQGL
human Tau splice isoform 1N3R (Tau381), sequence (P10636 other isoform, or with tags, fused parts or gaps limits assumed): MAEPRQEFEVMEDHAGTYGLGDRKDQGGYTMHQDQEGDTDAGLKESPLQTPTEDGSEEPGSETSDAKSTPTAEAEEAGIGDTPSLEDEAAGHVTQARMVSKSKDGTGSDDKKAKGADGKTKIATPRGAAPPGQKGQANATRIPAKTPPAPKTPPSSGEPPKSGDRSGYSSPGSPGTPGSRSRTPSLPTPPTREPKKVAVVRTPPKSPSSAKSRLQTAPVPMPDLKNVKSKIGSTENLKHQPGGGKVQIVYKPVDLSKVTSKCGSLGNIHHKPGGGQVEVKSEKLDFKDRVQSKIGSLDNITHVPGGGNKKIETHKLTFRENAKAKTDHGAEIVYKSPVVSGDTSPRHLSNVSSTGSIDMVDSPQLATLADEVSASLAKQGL
T1 sequence (P57786 other isoform, or with tags, fused parts or gaps limits assumed): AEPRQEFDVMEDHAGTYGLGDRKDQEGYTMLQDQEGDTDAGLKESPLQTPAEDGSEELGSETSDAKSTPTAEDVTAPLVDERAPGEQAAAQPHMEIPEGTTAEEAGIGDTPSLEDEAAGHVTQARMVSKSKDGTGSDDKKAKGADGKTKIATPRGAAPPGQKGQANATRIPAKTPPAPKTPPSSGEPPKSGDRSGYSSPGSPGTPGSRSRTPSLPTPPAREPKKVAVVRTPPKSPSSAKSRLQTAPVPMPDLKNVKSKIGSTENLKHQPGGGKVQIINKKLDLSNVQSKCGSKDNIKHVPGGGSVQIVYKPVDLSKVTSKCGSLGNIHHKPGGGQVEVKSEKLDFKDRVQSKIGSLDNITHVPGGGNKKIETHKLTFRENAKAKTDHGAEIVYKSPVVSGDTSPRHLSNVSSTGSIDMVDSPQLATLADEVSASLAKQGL
human Tau splice isoform 0N4R (Tau383), sequence (P10636 other isoform, or with tags, fused parts or gaps limits assumed): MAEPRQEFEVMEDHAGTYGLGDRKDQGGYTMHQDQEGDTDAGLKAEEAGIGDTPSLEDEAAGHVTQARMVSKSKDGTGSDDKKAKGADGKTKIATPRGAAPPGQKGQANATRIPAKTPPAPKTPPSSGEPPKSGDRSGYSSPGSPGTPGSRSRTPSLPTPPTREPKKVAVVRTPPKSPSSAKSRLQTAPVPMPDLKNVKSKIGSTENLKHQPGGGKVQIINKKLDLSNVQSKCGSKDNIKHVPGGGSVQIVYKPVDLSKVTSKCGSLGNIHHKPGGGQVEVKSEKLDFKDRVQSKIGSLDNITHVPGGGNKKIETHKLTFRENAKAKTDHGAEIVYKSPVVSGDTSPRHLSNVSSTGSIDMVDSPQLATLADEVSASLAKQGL
human Tau splice isoform 0N3R (Tau352), sequence (P10636 other isoform, or with tags, fused parts or gaps limits assumed): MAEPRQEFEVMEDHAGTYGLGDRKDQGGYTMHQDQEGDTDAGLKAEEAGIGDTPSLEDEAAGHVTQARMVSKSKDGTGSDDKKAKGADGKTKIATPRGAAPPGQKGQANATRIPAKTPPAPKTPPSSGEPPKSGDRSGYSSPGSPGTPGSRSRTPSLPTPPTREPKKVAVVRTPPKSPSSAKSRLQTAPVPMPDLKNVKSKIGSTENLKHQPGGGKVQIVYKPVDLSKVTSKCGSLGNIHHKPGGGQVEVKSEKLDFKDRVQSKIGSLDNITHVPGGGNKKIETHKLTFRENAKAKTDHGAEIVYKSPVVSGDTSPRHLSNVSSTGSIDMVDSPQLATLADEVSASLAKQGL
human Tau splice isoform 1N4R (Tau412), sequence (P10636 other isoform, or with tags, fused parts or gaps limits assumed): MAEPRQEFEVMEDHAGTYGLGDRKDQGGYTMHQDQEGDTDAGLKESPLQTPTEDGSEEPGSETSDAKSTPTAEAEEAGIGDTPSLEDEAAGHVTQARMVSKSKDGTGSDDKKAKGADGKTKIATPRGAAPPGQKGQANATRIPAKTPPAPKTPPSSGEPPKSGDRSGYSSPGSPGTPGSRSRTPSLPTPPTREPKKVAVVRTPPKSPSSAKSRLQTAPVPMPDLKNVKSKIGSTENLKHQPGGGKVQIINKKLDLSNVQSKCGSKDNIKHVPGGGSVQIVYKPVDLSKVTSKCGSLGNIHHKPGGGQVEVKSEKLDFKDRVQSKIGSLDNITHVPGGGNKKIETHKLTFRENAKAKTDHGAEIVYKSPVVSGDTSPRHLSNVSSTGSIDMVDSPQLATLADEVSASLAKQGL
human Tau splice isoform 2N3R (Tau410), sequence (P10636 other isoform, or with tags, fused parts or gaps limits assumed): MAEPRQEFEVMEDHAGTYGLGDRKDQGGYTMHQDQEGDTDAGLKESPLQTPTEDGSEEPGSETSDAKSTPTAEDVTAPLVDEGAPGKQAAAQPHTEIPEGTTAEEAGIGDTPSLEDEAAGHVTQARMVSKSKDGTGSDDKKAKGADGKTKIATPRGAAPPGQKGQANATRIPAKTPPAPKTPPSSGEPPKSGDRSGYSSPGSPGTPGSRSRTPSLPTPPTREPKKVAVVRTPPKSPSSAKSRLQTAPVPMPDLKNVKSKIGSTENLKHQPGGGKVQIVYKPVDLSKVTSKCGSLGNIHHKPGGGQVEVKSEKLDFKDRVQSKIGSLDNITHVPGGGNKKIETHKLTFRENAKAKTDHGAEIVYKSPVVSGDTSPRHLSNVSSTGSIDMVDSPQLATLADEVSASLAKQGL
T2 sequence (P10636 other isoform, or with tags, fused parts or gaps limits assumed): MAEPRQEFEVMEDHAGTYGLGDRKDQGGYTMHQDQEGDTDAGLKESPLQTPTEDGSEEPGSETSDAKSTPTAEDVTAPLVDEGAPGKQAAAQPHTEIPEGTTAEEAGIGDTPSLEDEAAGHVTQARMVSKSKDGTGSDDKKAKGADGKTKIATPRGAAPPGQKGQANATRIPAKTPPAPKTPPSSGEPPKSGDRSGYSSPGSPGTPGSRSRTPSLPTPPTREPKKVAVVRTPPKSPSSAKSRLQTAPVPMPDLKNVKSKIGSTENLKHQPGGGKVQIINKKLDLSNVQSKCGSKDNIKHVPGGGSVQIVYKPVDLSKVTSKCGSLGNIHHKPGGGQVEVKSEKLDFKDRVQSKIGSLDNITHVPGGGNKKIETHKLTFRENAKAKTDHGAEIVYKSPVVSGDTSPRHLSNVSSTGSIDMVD

B1: Clone 1A1 Fab (Fab, V domains shown)
VH: EVQLQQSGAELVRPGASVRLSCTASGFNIKDSLMHWLKQRPEQGLEWIGWIDPEDGETKYAPKFQDKATITADTSSNTAYLQLSSLTSEDTAIYYCTRRDWEGPWGQGTLVTVSA
VL: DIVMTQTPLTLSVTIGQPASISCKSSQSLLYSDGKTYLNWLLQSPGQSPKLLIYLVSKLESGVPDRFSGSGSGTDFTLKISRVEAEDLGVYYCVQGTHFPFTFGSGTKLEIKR
notes: crude periplasmic Fab; mouse V regions joined to human CH1 and human kappa constant
As to B1, the A450 avg. stood at 1.54 in assay [1]; 1.81 in assay [2]; 1.52 in assay [3]; 2.39 in [4]; 2.5 in [5]; 1.8 in assay [6]. Moreover, the A450 avg. in [7] is 2.59; in assay [8], 2.09; in assay [9] it was 2.37; in [10], 2.52; in assay [11], 1.95.

B2: anti-Tau antibody 1C7/3C.35.21 (antibody, human IgG1, kappa, L234A L235A)
heavy 1: EVKLVESGGGLVKPGGSLKLSCAASGFTFSSYGMSWVRQTPEKRLEWVASISGDGGSYIHYADSVKGRFTISRDSAKNTLYLQMSSLRSEDTALYYCARLPYWGQGTLVTVSAASTKGPSVFPLAPSSKSTSGGTAALGCLVKDYFPEPVTVSWNSGALTSGVHTFPAVLQSSGLYSLSSVVTVPSSSLGTQTYICNVNHKPSNTKVDKKVEPKSCDKTHTCPPCPAPEAAGGPSVFLFPPKPKDTLMISRTPEVTCVVVDVSHEDPEVKFNWYVDGVEVHNAKTKPREEQYNSTYRVVSVLTVLHQDWLNGKEYKCKVSNKALGAPIEKTISKAKGQPREPQVYTLPPSRDELTKNQVSLWCLVKGFYPSDIAVWWESYGTEWSSYKTTPPVLDSDGSFFLYSKLTVTKEEWQQGFVFSCSVMHEALHNHYTQKSLSLSPGK
heavy 2: EVKLVESGGGLVKPGGSLKLSCAASGFTFSSYGMSWVRQTPEKRLEWVASISGDGGSYIHYADSVKGRFTISRDSAKNTLYLQMSSLRSEDTALYYCARLPYWGQGTLVTVSAASTKGPSVFPLAPSSKSTSGGTAALGCLVKDYFPEPVTVSWNSGALTSGVHTFPAVLQSSGLYSLSSVVTVPSSSLGTQTYICNVNHKPSNTKVDKKVEPKSCDKTHTCPPCPAPEAAGGPSVFLFPPKPKDTLMISRTPEVTCVVVDVSHEDPEVKFNWYVDGVEVHNAKTKPREEQYNSTYRVVSVLTVLHQDWLNGKEYKCKVSNKALGAPIEKTISKAKGQPREPQVYTLPPSRDELTKNQVSLSCAVKGFYPSDIAVEWESNGQPENNYKTTPPVLDSDGSFFLVSKLTVDKSRWQQGNVFSCSVMHEALHNHYTQKSLSLSPGK
light: DIVMTQSPSSLTVTAGEKVTMSCKSSQSLLNSGNQKNYLTWYQQKPGQPPKLLIYWASTRESGVPDRFTGSGSGTDFTLTISNVQSEDLAEYFCQQYNSYPLTFGAGTKLELKRTVAAPSVFIFPPSDEQLKSGTASVVCLLNNFYPREAKVQWKVDNALQSGNSQESVTEQDSKDSTYSLSSTLTLSKADYEKHKVYACEVTHQGLSSPVTKSFNRGEC
notes: two 1C7 Fab arms; LALAPG; also called Tau^1C7/3C.35.21
On to B2, for which the Kd (usually the free concentration of one partner at which half of the binding sites on the other are occupied at equilibrium, for simple one-to-one binding) in assay [12] was found to be 0.4 nM.

B3: Clone 1C7 Fab (Fab, V domains shown)
VH: EVKLVESGGGLVKPGGSLKLSCAASGFTFSSYGMSWVRQTPEKRLEWVASISGDGGSYIHYADSVKGRFTISRDSAKNTLYLQMSSLRSEDTALYYCARLPYWGQGTLVTVSA
VL: DIVMTQSPSSLTVTAGEKVTMSCKSSQSLLNSGNQKNYLTWYQQKPGQPPKLLIYWASTRESGVPDRFTGSGSGTDFTLTISNVQSEDLAEYFCQQYNSYPLTFGAGTKLELKR
notes: as for B1
In the case of B3, the A450 avg. in [1] worked out at 2.4; in assay [2], 2.31; in [3], 2.12; in [4], 2.69; in [5], 2.73; in assay [6] it was 2.3. The A450 avg. worked out at 2.7 in [7]; 2.24 in assay [8]; 2.66 in assay [9]; 2.75 in assay [10]; 0.06 in assay [11]. The molecule further had an A450 in assay [11] of 0.06.

B4: hu1C7.v2 (S49A) (antibody, V domains shown)
VH: EVQLLESGGGLVQPGGSLRLSCAASGFTFSSYGMSWVRQAPGKGLEWVASISGDGGSYIHYADSVKGRFTISRDNSKNTLYLQMNSLRAEDTAVYYCARLPYWGQGTLVTVSS
VL: DIVMTQSPDSLAVSLGERATINCKSSQSLLNSGNQKNYLTWYQQKPGQPPKLLIYWASTRESGVPDRFSGSGSGTDFTLTISSLQAEDVAVYYCQQYNSYPLTFGQGTKVEIKR
B4: in assay [13], the Kd was found to be 1.5 nM; the koff (as a rule, the first-order rate constant of dissociation) amounted to 0.0011 s⁻¹; the kon (usually the rate constant with which the complex forms) was determined as 760000 M⁻¹ s⁻¹. In addition, in assay [12], the Kd was around 1.6 nM and the “fold weaker binding than chimeric 1C7” value was around 2 fold. In assay [14], the Kd was 1.5 nM, the koff was determined as 0.0011 s⁻¹ and the kon was 760000 M⁻¹ s⁻¹. Besides, in assay [15], the Kd amounted to 1.45 nM, the koff amounted to 0.000851 s⁻¹ and the kon was determined as 585000 M⁻¹ s⁻¹.

B5: hu1C7.v4 (S49A, S75A) (antibody, V domains shown)
VH: B4 VH with S76A
VL: B4 VL
As for B5, in assay [13], the Kd was determined as 1.8 nM, the dissociation rate constant (koff) is 0.0011 s⁻¹ and the kon came out at 660000 M⁻¹ s⁻¹. Further, in assay [12], the Kd was around 1.6 nM and the “fold weaker binding than chimeric 1C7” value was around 2 fold.

B6: hu1C7.v1 (antibody, V domains shown)
VH: B4 VH with A49S
VL: B4 VL
For B6, in [12], the Kd was around 1.6 nM and the “fold weaker binding than chimeric 1C7” value is around 2 fold.

B7: hu1C7.v3 (S75A) (antibody, V domains shown)
VH: B4 VH with A49S, S76A
VL: B4 VL
As for B7, in assay [13], the Kd came out at 1.7 nM, the koff was 0.0012 s⁻¹ and the kon worked out at 730000 M⁻¹ s⁻¹. In assay [12], the Kd is around 1.6 nM and the “fold weaker binding than chimeric 1C7” value was around 2 fold.

B8: Clone 1A5 Fab (Fab, V domains shown)
VH: EVQLQQSGAELVRPGASVKLSCTASGFNIKDSLIHWVKQRPEQGLEWIGWIDPEDGETKYAPKFQDKATKTADTSSNTAYLQLSSLTSEDTAIYYCASGEWDYWGQGTSVTVSS
VL: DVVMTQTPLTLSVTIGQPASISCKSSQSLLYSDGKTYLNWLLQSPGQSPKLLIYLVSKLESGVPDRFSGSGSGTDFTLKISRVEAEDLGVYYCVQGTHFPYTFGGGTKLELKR
notes: as for B1
For the molecule B8, the A450 avg. in assay [1] amounted to 1.19; in assay [2], 1.9; in [3], 1.64; in assay [4], 2.33; in assay [5], 2.57; in [6], 2.08. Also, the A450 avg. in assay [7] came out at 2.58; in assay [8], 2.08; in assay [9], 2.48; in assay [10], 2.54; in assay [11], 2.07.
